US20210261685A1 (Alector, published 2021)
Residue numbers refer to the chain shown, from its start.

T1: human Axl ECD construct (Full Axl) with linker+His+Avi tag (human, UniProt P30530 26-451)
T1 construct: tested as Expi293 supernatant; also called ECD domain of human Axl
T1 sequence: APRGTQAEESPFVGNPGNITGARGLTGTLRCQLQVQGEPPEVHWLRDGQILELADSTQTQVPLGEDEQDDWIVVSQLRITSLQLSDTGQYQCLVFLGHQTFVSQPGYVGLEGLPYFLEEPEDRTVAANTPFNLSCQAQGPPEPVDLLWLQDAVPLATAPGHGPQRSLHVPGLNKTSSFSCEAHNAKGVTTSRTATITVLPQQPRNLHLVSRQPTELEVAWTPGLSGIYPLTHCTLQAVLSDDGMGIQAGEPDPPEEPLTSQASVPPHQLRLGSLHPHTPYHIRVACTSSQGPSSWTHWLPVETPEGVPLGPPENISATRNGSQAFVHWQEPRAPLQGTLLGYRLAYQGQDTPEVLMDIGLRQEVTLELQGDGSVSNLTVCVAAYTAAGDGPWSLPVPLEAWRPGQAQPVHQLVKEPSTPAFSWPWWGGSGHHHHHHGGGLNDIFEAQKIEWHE

T2: cyno MerTK extracellular domain (ECD), recombinant (cynomolgus monkey, UniProt Q12866 21-505 (human entry))
T2 construct: also called cynomolgus MerTK; not shown: polyHis tag or TEVS/Thrombin/murine IgG2a Fc tag
T2 chain: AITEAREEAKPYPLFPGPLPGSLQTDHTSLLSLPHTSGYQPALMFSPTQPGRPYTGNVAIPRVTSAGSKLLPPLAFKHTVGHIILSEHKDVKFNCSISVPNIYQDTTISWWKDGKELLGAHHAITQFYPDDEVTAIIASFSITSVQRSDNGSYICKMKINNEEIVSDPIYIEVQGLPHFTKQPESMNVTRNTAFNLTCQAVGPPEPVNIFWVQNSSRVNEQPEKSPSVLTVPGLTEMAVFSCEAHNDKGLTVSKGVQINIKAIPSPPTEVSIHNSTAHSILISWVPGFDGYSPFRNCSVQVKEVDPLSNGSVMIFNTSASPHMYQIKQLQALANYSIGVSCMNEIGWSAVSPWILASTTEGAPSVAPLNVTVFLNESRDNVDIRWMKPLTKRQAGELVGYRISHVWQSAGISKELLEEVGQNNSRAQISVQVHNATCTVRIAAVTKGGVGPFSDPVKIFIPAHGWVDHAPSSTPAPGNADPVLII

T3: murine MerTK extracellular domain (ECD), recombinant (mouse, UniProt Q60805 19-497)
T3 construct: also called moMerTK; mouse MerTK; not shown: polyHis tag or TEVS/Thrombin/murine IgG2a Fc tag
T3 sequence: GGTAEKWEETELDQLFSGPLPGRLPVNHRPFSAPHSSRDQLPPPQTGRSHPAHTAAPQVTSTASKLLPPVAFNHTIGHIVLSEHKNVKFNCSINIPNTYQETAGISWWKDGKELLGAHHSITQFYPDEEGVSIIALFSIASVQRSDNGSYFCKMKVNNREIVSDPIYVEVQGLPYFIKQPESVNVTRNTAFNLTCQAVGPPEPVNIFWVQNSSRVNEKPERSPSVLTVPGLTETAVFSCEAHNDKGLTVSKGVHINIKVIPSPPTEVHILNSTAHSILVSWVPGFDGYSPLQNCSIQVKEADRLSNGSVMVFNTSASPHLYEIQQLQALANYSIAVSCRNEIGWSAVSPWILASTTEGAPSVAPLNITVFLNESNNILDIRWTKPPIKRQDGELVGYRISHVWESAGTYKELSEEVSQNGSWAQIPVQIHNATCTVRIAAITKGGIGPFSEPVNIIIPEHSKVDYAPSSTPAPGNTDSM

T4: human MerTK extracellular domain (ECD), recombinant (human, UniProt Q12866 21-505)
T4 construct: also called huMerTK; not shown: polyHis tag or TEVS/Thrombin/murine IgG2a Fc tag
T4 sequence: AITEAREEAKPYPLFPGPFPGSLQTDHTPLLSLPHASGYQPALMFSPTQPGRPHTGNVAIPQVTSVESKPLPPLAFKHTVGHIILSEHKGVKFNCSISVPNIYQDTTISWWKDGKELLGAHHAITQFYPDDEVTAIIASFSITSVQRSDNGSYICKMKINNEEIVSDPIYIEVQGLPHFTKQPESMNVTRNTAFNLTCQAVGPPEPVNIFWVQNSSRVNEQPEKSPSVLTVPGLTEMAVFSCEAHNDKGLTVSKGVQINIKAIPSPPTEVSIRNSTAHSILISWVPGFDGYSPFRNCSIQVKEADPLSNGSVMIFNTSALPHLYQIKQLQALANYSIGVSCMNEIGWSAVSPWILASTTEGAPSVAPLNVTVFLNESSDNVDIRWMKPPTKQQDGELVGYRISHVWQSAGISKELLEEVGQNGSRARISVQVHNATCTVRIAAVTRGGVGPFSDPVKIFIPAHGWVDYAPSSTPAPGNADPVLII

T5: Recombinant human MerTK human Fc Chimera protein (R&D systems, Cat #391-MR-100) (human, UniProt Q12866 26-499, limits assumed)
T5 construct: Bought; also called recombinant human MerTK protein; MerTK-Fc
T5 sequence: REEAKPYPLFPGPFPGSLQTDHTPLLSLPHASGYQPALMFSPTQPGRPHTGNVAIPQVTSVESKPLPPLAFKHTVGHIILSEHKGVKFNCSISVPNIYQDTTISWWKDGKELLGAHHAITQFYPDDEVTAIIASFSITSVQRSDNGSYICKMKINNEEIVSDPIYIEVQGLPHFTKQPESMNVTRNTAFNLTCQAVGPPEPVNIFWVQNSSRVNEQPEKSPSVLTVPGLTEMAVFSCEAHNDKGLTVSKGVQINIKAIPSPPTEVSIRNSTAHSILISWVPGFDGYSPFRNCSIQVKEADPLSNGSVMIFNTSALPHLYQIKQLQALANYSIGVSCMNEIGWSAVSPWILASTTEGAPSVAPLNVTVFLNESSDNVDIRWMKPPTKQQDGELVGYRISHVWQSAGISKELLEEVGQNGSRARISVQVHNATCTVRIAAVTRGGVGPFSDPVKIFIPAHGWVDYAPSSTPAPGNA

B1: MTK-25 (antibody, human IgG1, V domains shown)
VH: EVKLVESEGGLVQPGSSMKLSCTASGFTFSDYYMAWVRQVPEKGLEWVANINYEGSSTYYLGSLKSRFIISRDNAENILYLQMSSLKSEDTATYYCARYYYGSVDYWGQGTTLTVSS
VL: DIVMTQSQKFMSTSVGDRVSITCKASQNVRTTVAWYQQKPGQSPKTLIYLASNRHTGVPDRFTGSGSGTDFTLTISNVQSEDLADYFCLQLWNYPWTFGGGTKLEIK
B2: MTK-33.14 (antibody, human IgG1, V domains shown)
VH: QVQLVQSGAEVKKPGASVKVSCKASGYTFTSYWMHWVRQAPGQGLEWIGVIDPSDNYINYNQKFRGRVTMTRDTSTSTVYMELSSLRSEDTAVYYCAREAGTRGYFDYWGQGTLVTVSS
VL: DIQMTQSPSSLSASVGDRVTITCQASQSVSNTVAWYQQKPGKAPKLLIYYASNRYTGVPSRFSGSGSGTDFTFTISSLQPEDIATYYCQQDYRSPFTFGQGTKLEIK
B3: MTK-33.16 (antibody, human IgG1, V domains shown)
VH: B2 VH with G26W, R65Q
VL: B2 VL with Q27R
B4: MTK-33.21 (antibody, human IgG1, V domains shown)
VH: B2 VH
VL: B2 VL with D17G, Q27R, A51V, Y92M
B5: MTK-33.17 (antibody, human IgG1, V domains shown)
VH: B2 VH with D52A
VL: B2 VL with Q27R, Y92M
B6: MTK-33.15 (antibody, human IgG1, V domains shown)
VH: B2 VH with R65Q, G66V
VL: B2 VL with Q27R, Y92M
B7: MTK-23 (antibody, human IgG1, V domains shown)
VH: QVQLQQSGADLVRPGASVKISCKAFGYTFTNHHINWVKQRPGQGLDWIGNVDPYNDYSTYNQKFKGKATLTVDKSSSTAYMELSSLTSEDSAVYYCARRVYDGFYVDWYFDVWGAGTTVTVSS
VL: DIVMTQSHKFMSTPVGDRVSITCKASRDVSTAVAWFHQKPGQSPKLLIYSASYRSTGVPDRFTGSGSGTDFTFTISSVQAEDLAVYYCQQHYSAPLTFGAGTKLELK

Biological target: T1, human Axl ECD construct (Full Axl) with …
Assay: SPR, Carterra LSA, antibody immobilised, construct supernatant injected
Description: Binding of anti-MerTK antibodies of the present disclosure to these domain-swapped chimera or deletion mutants (prepared as described above) was tested by Surface Plasmon Resonance (SPR) using Carterra LSA. Purified anti-MerTK antibodies were immobilized in duplicate on a HC30M chip (Carterra) by amine coupling, following the manufacturer's instructions (described previously). Supernatants containing the constructs were diluted 1:1 with running buffer containing 0.5 mg/mL BSA (HBS-TE, Carterra) and injected over the immobilized antibodies. The surface was regenerated with 10 mM Glycine pH2.0 after each construct injection. Sensorgrams were analyzed using Carterra Epitope software to identify patterns of construct binding. Loss of binding to MerTK constructs with domains deleted or swapped in from Axl and/or gain of binding to Axl constructs with MerTK domains swapped in were evaluated. Data from these studies was used to construct a domain binding map for anti-MerTK antibodies and their binding to various domains of human MerTK.

binding result	Binder
no binding	B1

Biological target: T2, cyno MerTK extracellular domain (ECD), …
Assay: SPR, Carterra LSA, antibody immobilised
Description: (§1) Binding kinetics of humanized and affinity-matured anti-MerTK antibodies of the present disclosure to human, murine, and cynomolgus MerTK proteins were evaluated as follows. Briefly, anti-MerTK antibodies were prepared by diluting to 10 μg/ml in 10 mM Acetate, pH 4.25 (Carterra, Salt Lake City, Utah), at 300 μl/well. A HC200M sensor chip (Carterra) was activated using the single channel flow cell with a 7-minute injection of a 1:1:1 mixture of 100 mM MES pH 5.5, 100 mM sulfo-NHS, 400 mM EDC (all reconstituted in MES pH 5.5; 100 μl of each mixed in vial immediately before running assay). After switching to the multi-channel array flow cell, the antibodies were injected over the activated chip in a 96-spot array for 15 minutes. The remaining unconjugated active groups on the chip were then blocked by injecting 1M Ethanolamine pH 8.5 (Carterra) for 7 minutes using the single channel flow cell.
(§2) Estimates of affinity were generated by injecting each analyte over the entire antibody array using the single channel flow cell. MerTK analytes were diluted to 33.3, 100, and 300 nM in running buffer, and injected in serial from lowest to highest concentration without regeneration. Two buffer blanks were run between each series (one species per series). Data were processed and analyzed using NextGenKIT high-throughput kinetics analysis software (Carterra). In these experiments, the anti-MerTK antibodies were human IgG1 isotype containing the Fc variant LALAPS.
(§3) The equilibrium dissociation constants (KD) were then calculated from the fitted association and dissociation rate constants (k-on and k-off) for anti-MerTK antibodies of the present disclosure.

Kd	Binder
29 nM	B2
10.1 nM	B3
0.3 nM	B4
19.9 nM	B5
4 nM	B6

Biological target: T3, murine MerTK extracellular domain …
Assay: SPR, Carterra LSA, antibody immobilised
Description: as §1, §2, §3

Kd	Binder
275 nM	B2
225 nM	B3
44 nM	B4
505 nM	B5
105 nM	B6

Biological target: T4, human MerTK extracellular domain (ECD), …
Assay: SPR, Carterra LSA, antibody immobilised
Description: as §1, §2, §3

Kd	Binder
30.5 nM	B2
10.9 nM	B3
0.4 nM	B4
20.4 nM	B5
4.6 nM	B6

Biological target: T5, Recombinant human MerTK human Fc …
Assay: competition ELISA, His-ProS on captured MerTK-Fc
Description: Rabbit anti-human IgG polyclonal antibody (Jackson ImmunoResearch, Cat #309-005-008) was captured to a high-protein binding plate at 2 μg/ml 4° C. overnight. After washing with 0.05% Tween20 in PBS three times, 5% BSA in PBS was added for 1 hour. Recombinant human MerTK human Fc Chimera protein (R&D systems, Cat #391-MR-100) was added at 2 μg/ml for 1 hour and the plates were then washed. Anti-MerTK antibodies were titrated to final concentration range of between 66.6 nM to 4 pM and then 40 μl of serially diluted antibody and 40 μl of His tag-conjugated recombinant Gas6 protein (R&D systems, Cat #885-GSB-050) at 3 μg/ml or His tag-conjugated recombinant ProS protein (R&D systems, Cat #9489-PS-100) at 20 μg/ml. After a further incubation for 1 hour, plates were washed and incubated for 1 hour with HRP-conjugated anti-6×His tag antibody (Abcam, Cat #ab1187). Plates were then washed and an HRP substrate (TMB) was used to develop the plates. After sufficient color change was observed, the reaction was stopped by adding 50 μl 2N H₂SO₄ and the OD was measured using a spectrophotometer (BioTek).
From these experiments, IC50 values [nM] were determined using OD450 values obtained from the dose-response curves analyzed with Prism software. Table 14 and Table 15 show IC50 values determined for anti-MerTK antibody blocking of Gas6 ligand binding and ProS ligand binding to MerTK. […] Dashes indicate lack of significant blocking; “n.a.” indicates data not available.

IC50	Binder
25.9 nM	B7
